# Assay results as given in patent US20230293571A1, “POLYNUCLEOTIDE FOR CANCER TREATMENT, ENCODING 5'-NUCLEOTIDASE MODIFIED PROTEIN” (priority 2020, published 2023).
# B1: SV4-DSPE (conjugate)
# chain: MEEELQIIQPDLSVSVAAGESAILHCTITSLFPVGPIQWFRGAGPARVLIYNQRQGPFPRVTTVSETTKRENMDFSISISNITPADAGTYYCIKFRKGSPDTEFLSGAGTELSVRAKPS
# Biological target: recombinant CD47 protein (Homo sapiens, UniProt Q08722)
# Experiment: SPR on CM5 chip conjugated with CD47
# Format: binding
# Conditions: CD47 250 RU
# Procedure: Specifically, the recombinant CD47 protein was conjugated to the surface of the CM5 chip by a target SPR reaction of 250 RU through an EDC-NHS reaction to be used, and for HBS-P, the sensogram obtained through a process of association for 3 minutes and dissociation for 10 minutes at a flow rate of 30 μL/minutes was analyzed with the BiaEvaluation software using a 1:1 binding model and global fitting.
# Sequence of recombinant CD47 protein (Q08722 19-323): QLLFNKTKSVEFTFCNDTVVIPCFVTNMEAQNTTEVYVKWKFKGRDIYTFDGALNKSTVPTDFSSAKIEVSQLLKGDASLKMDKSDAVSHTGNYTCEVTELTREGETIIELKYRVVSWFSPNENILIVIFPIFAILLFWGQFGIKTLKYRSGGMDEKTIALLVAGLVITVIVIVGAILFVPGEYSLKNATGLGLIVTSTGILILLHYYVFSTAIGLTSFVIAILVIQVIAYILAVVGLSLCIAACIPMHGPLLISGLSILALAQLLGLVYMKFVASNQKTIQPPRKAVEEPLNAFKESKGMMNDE
Molecule,Kd [nM],kd [s⁻¹]
"Sirpα: pure Sirpα (SEQ ID NO: 25), water-soluble domain of the original CD47 ligand",290,–
B1,–,0.000256
